2 variants from publication PMC7412702 can be followed below.

B1: MYC-tagged human wild-type ZP3 [human] / HA-tagged wild-type human ZP1 [human] (parent)
chain 1: QPLWLLQGGASHPETSVQPVLVECQEATLMVMVSKDLFGTGKLIRAADLTLGPEACEPLVSMDTEDVVRFEVGLHECGNSMQVTDDALVYSTFLLHDPRPVGNLSIVRTNRAEIPIECRYPRQGNVSSQAILPTWLPFRTTVFSEEKLTFSLRLMEENWNAEKRSPTFHLGDAAHLQAEIHTGSHVPLRLFVDHCVATPTPDQNASPYHTIVDFHGCLVDGLTDASSAFKVPRPGPDTLQFTVDVFHFANDSRNMIYITCHLKVTLAEQDPDELNKACSFSKPSNSWFPVEGSADICQCCNKGDCGTPSHSRRQPHVMSQWSRSASRN
chain 2: RWLQPDPGLPGLRHSYDCGIKGMQLLVFPRPGQTLRFKVVDEFGNRFDVNNCSICYHWVTSRPQEPAVFSADYRGCHVLEKDGRFHLRVFMEAVLPNGRVDVAQDATLICPKPDPSRTLDSQLAPPAMFSVSTPQTLSFLPTSGHTSQGSGHAFPSPLDPGHSSVHPTPALPSPGPGPTLATLAQPHWGTLEHWDVNKRDYIGTHLSQEQCQVASGHLPCIVRRTSKEACQQAGCCYDNTREVPCYYGNTATVQCFRDGYFVLVVSQEMALTHRITLANIHLAYAPTSCSPTQHTEAFVVFYFPLTHCGTTMQVAGDQLIYENWLVSGIHIQKGPQGSITRDSTFQLHVRCVFNASDFLPIQASIFPPPSPAPMTQPGPLRLELRIAKDETFSSYYGEDDYPIVRLLREPVHVEVRLLQRTDPNLVLLLHQCWGAPSANPFQQPQWPILSDGCPFKGDSYRTQMVALDGATPFQSHYQRFTVATFALLDSGSQRALRGLVYLFCSTSACHTSGLETCSTACSTGTTRQ
B2: HA-tagged wild-type human ZP1 [human] / MYC-tagged human wild-type ZP3 [human] (parent)
chain 1: B1 chain 2
chain 2: B1 chain 1

The variants in one assay derive from B1. The assay is described as follows: co-IP (IP: MYC as labelled in the image, blot anti-HA), densitometry. Particulars: with HA-tagged wild-type human ZP1 [human]; HeLa cells; mutant lane co-transfected with MYC-ZP3WT + MYC-ZP3A134T + HA-ZP1 (imitating heterozygous state); parent lane MYC-ZP3WT + HA-ZP1; parent: 1; read off a plot; scale: relative protein level.
Take chain 1 QPLWLLQGGASHPETSVQPVLVECQEATLMVMVSKDLFGTGKLIRAADLTLGPEACEPLVSMDTEDVVRFEVGLHECGNSMQVTDDALVYSTFLLHDPRPVGNLSIVRTNRTEIPIECRYPRQGNVSSQAILPTWLPFRTTVFSEEKLTFSLRLMEENWNAEKRSPTFHLGDAAHLQAEIHTGSHVPLRLFVDHCVATPTPDQNASPYHTIVDFHGCLVDGLTDASSAFKVPRPGPDTLQFTVDVFHFANDSRNMIYITCHLKVTLAEQDPDELNKACSFSKPSNSWFPVEGSADICQCCNKGDCGTPSHSRRQPHVMSQWSRSASRN [chain 1 A112T]: the response stood at 0.87.

Variants of B2 are the subject of a further assay. Kind of assay: co-IP (IP: anti-HA, blot anti-MYC), densitometry. Particulars: with MYC-tagged human wild-type ZP3 [human]; HeLa cells; mutant lane co-transfected with HA-ZP1WT + HA-ZP1R109H + MYC-ZP3 (imitating heterozygous state); parent lane HA-ZP1WT + MYC-ZP3; parent: 1; read off a plot; scale: relative protein level.
As to chain 1 RWLQPDPGLPGLRHSYDCGIKGMQLLVFPRPGQTLRFKVVDEFGNRFDVNNCSICYHWVTSRPQEPAVFSADYRGCHVLEKDGHFHLRVFMEAVLPNGRVDVAQDATLICPKPDPSRTLDSQLAPPAMFSVSTPQTLSFLPTSGHTSQGSGHAFPSPLDPGHSSVHPTPALPSPGPGPTLATLAQPHWGTLEHWDVNKRDYIGTHLSQEQCQVASGHLPCIVRRTSKEACQQAGCCYDNTREVPCYYGNTATVQCFRDGYFVLVVSQEMALTHRITLANIHLAYAPTSCSPTQHTEAFVVFYFPLTHCGTTMQVAGDQLIYENWLVSGIHIQKGPQGSITRDSTFQLHVRCVFNASDFLPIQASIFPPPSPAPMTQPGPLRLELRIAKDETFSSYYGEDDYPIVRLLREPVHVEVRLLQRTDPNLVLLLHQCWGAPSANPFQQPQWPILSDGCPFKGDSYRTQMVALDGATPFQSHYQRFTVATFALLDSGSQRALRGLVYLFCSTSACHTSGLETCSTACSTGTTRQ [chain 1 R84H], the response was 0.22.
